This note sets out measurements from paper PMC8729784.

This assay deals with T1, α-catenin monomer (recombinant full-length mouse α-catenin) (mouse), P26231.
T1 chain: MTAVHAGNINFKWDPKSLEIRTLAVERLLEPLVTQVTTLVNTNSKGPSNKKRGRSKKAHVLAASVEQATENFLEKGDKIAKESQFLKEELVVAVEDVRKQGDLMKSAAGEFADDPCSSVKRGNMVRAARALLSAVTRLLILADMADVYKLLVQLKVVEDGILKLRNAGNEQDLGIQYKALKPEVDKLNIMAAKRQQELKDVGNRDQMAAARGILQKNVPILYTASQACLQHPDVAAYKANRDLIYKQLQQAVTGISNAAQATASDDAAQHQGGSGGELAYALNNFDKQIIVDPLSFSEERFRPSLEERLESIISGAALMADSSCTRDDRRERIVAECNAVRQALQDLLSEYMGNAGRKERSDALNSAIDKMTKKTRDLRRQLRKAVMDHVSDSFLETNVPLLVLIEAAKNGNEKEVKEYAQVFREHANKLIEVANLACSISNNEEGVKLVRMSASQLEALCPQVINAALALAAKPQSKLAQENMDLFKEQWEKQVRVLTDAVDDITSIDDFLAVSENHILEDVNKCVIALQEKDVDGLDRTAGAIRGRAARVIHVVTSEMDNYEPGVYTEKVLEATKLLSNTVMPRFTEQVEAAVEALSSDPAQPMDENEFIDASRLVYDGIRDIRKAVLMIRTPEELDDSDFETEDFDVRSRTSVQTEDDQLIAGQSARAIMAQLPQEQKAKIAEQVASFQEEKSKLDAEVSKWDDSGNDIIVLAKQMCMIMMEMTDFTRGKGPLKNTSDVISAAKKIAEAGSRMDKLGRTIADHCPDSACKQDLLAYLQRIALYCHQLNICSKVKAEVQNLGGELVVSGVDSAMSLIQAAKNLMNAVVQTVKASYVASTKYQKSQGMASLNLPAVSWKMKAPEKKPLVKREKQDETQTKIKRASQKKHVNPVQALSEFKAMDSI
Briefly: SEC; Superdex 200 gel filtration at 4°C in 20 mM Tris-HCl pH 8.0, 150 mM NaCl, 2.5 mM DTT, after His-tag affinity chromatography; dimer and monomers. The settings on record: remark: other sources report otherwise. Background: SEC sorts molecules by how far they enter the pores of the column.

B1: α-catenin monomer (recombinant full-length mouse α-catenin), P26231 1-906 (natural protein)
chain: T1 chain
Consider B1, for which the stoichiometry N came to 2.

Usually stoichiometry N stands for the number of molecules, sites or subunits per partner or assembly.
